The text below walks through data of US20220380734A1, “SYSTEMS AND METHODS FOR LUNG CELL EXPANSION AND DIFFERENTIATION” (DUKE UNIVERSITY, priority 2019, published 2022).

The test system of assay [1] is human alveolospheres. Nature of the assay: Human alveolosphere culture with human IL-1β. Particulars: three donors, hIL-1β removed at day 7, cultured additional 7-15 days. It counts as cell-based. Here is the method: For human alveolosphere culture, HTII-280^+ human AT2s (1-3×10^3) were resuspended in scrum free medium and mixed with an equal amount of Matrigel and plated in 6 well plates. For detailed mouse and human serum-free, feeder-free (SFFF) media composition, see Table 1 and Table 2.
The impact of human IL-1β was also tested in human alveolosphere culture. Human IL-1β was removed from medium containing human alveolospheres from three individual donors at day 7 and cultured for an additional 7-15 days (FIG. 7A).

Assay [2] has as its system AEC2s. Nature of the assay: AEC2/AEC1 marker immunostaining of mouse organoids (maintenance and differentiation).
Protocol: Serum free medium contained 10 μM SB431542 (Abcam, Cambridge, UK), 3 μM CHIR99021 (Tocris, Bristol, UK), 1 μM BIRB796 (Tocris, Bristol, UK), 5 μg/ml Heparin (Sigma-Aldrich, St. Louis, Mo.), 50 ng/ml human EGF (Gibco), 10 ng/ml mouse FGF10 (R&D systems. Minneapolis, Minn.), 10 μM Y27632 (Selleckchem, Houston, Tex.), Insulin-Transferrin-Selenium (Thermo, Waltham, Mass.), 1% Glutamax (Thermo, Waltham, Mass.), 2% B27 (Thermo, Waltham, Mass.), 1% N2 (Thermo, Waltham, Mass.), 15 mM HEPES (Thermo, Waltham, Mass.), 1.25 mM N-acetylcysteine (Sigma-Aldrich, St. Louis, Mo.) and 1% Anti-Anti (Thermo, Waltham, Mass.) in Advanced DMEM/F12 (Thermo, Waltham, Mass.). For Alveo-Expansion medium, 10 ng/ml mouse IL-1b (BioLegend, San Diego, Calif.), 10 ng/ml mouse TNFa (BioLegend, San Diego, Calif.) were added into serum free medium. For Alveo-Maintenance medium, 10 ng/ml mouse Noggin (Peprotech, Rocky Hill, N.J.) and 1 μM DMH-1 (Tocris, Bristol, UK.) were added into Alveo-Expansion medium. Alveo-Differentiation medium contained ITS, Glutamax, 5 μg/ml Heparin, 5 ng/ml human EGF, 1 μg/ml mouse FGF10, 10% fetal bovine serum and 1% Anti-Anti in Advanced DMEM/F12.
For differentiation, mouse alveolospheres were cultured in AMM medium for 10 days were switched to AT2-differentiation medium followed by culture for an additional 7 days, except where stated otherwise. […]
Assay [3] concerns AEC2s. Nature of the assay: Feeder-free (no fibroblasts) mouse AEC2 organoid culture in serum free medium: CFE and organoid size. The class given is cell-based.

Turning to “Human IL-1β: human interleukin-1β tested in human alveolosphere culture”, the “organoid numbers and the size (growth rate)” value in assay [1] is given as “significantly enhanced”.

With “IL6: interleukin-6, 20 ng/mL supplement of serum-free differentiation medium”, the “expression of AEC1 markers including AGER” value in assay [2] (mouse AEC2s, 10 days maintenance medium, then serum-free differentiation medium + IL6 20 ng/mL for 10 days) is given as “strong expression”.

B1: IL1β: mouse interleukin-1β, cytokine added to serum free medium (protein, UniProt P10749 118-269, looked up)
Interleukin-1 beta: VPIRQLHYRLRDEQQKSLVLSDPYELKALHLNGQNINQQVIFSMSFVQGEPSNDKIPVALGLKGKNLYLSCVMKDGTPTLQLESVDPKQYPKKKMEKRFVFNKIEVKSKVEFESAEFPNWYISTSQAEHKPVFLGNNSGQDIIDFTMESVSS
Regarding B1, the CFE is 19.85% in assay [3] (IL1β removed from culture media on day-3, n=2); 20.35%±0.30% in assay [3] (IL1β removed from culture media on day-5, n=3, average±SEM); 19.33%±0.84% in assay [3] (IL1β removed from culture media on day-7, n=3, average±SEM); 20.91%±1.61% in assay [3] (continuous IL1β supplementation, n=3, average±SEM).

B2: BMP4: BMP4 ligand (protein, UniProt P12644 293-408, looked up)
Bone morphogenetic protein 4: SPKHHSQRARKKNKNCRRHSLYVDFSDVGWNDWIVAPPGYQAFYCHGDCPFPLADHLNSTNHAIVQTLVNSVNSSIPKACCVPTELSAISMLYLDEYDKVVLKNYQEMVVEGCGCR
As to B2, the “complete differentiation of AEC2 to AEC1 cells” value in assay [2] (organoids treated with BMP4 ligand) is on record as “not observed”.
